Test results: the supplement of paper PMC10724198

Experiments:
[1] = system: Saccharomyces cerevisiae; assay: protein stability index of tFT-peptide fusion in wild type (PSI (0-1 scale)); higher = more stable (slower turnover); details: genetic background: wild type
Procedure: (§1)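 MPS profiling in S. cerevisiae of two library types built from selected 12-aa C-degron peptides (IN1, IN2, LN1, LN3, VN2, R1-R5, W1-W3, Atg1 and Rpa12 C-termini): saturation mutagenesis libraries and C-terminal +1 capping libraries (13 aa). Each peptide is fused to the C-terminus of a sfGFP-mCherry timer, after a GGGS linker. Cells are FACS-sorted into 8 mCherry/sfGFP bins and sequenced. PSI runs from 0 (unstable) to 1 (stable), measured once in wild type and in the das1Δ or doa10Δ background.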

[2] = system: Saccharomyces cerevisiae; assay: protein stability index of tFT-peptide fusion in deletion strain of DAS1 (PSI (0-1 scale)); higher = more stable (slower turnover)
Procedure: as §1
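For protein stability index of tFT-peptide fusion in deletion strain of DAS1 in this document: PSI is a weighted mean of each variant's read distribution over the sorted stability bins, computed only for variants having over 10 reads in total.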
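For protein stability index of tFT-peptide fusion in wild type in this document: PSI derived as read-weighted mean over the 8 sorting bins, only variants exceeding 10 total reads kept, mCherry placed adjacent to the peptide and sfGFP distal.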

Sequence	protein stability index [1]	protein stability index [2]
VRGAVGGQRLVG	0.643	0.677
CTSCGYKFRTSN	0.273	0.704
PDKRNHLIFLLN	0.116	0.687
PSLAASFWRVVGV	0.674	0.685
RLIQPLPYQFLN	0.0818	0.621
PDKRNHLIKLLNG	0.17	0.662
KDKRNHLIKLLN	0.0684	0.723
CTSCGYKFRTVN	0.15	0.705
KKHKKSQKQKIN	0.0607	0.584
VRGAVGGWREVG	0.504	0.654
CTSCAYKFRTNN	0.172	0.665
FSMRWFFRYWVN	0.0657	0.602
PKLAASFWRVVG	0.172	0.691
LVVYLSCFACIN	0.0181	0.0433
KKHKKGQVQKIN	0.152	0.649
ARSRVGLWRGAS	0.591	0.698
PSLAASFWRYVG	0.134	0.657
LVVYLSCVACQN	0.0434	0.097
LKTLRQKMNHQN	0.205	0.672
CTSCGYGFRTNN	0.594	0.693
CTSHGYKFRTNN	0.242	0.689
FSMRWTFRYDVN	0.524	0.572
LVVYLSCVACINQ	0.187	0.207
ARWRVRLWRGAS	0.333	0.671

Sequence	protein stability index [1]	protein stability index [2]
FSMTWTFRYWVN	0.0417	0.568
VRDAVGGWRLVG	0.172	0.654
PDKRNHLDKLLN	0.574	0.578
ARWRVNLWRGAS	0.34	0.708
PMLAASFWRVVG	0.162	0.702
KKHKKGQKQKIW	0.637	0.558
ASMRWTFRYWVN	0.0684	0.602
PDERNHLIKLLN	0.179	0.566
PDKRNHLIKDLN	0.628	0.557
LLILRQKMNHQN	0.155	0.673
LKILRQAMNHQN	0.23	0.658
KKQKKGQKQKIN	0.177	0.566
LVVYLSCVACIF	0.0136	0.029
RLIQPLPVQFLNI	0.627	0.644
PDKRNHLVKLLN	0.133	0.585
ARWRWGLWRGAS	0.55	0.681
KKHKKGQKQKIE	0.567	0.585
RGIQPLPVQFLN	0.112	0.581
KKHKKGQKQDIN	0.795	0.601
LVVYLSLVACIN	0.0258	0.0617
FSMRWTFRYWPN	0.525	0.528
CTSCGYKGRTNN	0.658	0.674
RLIQPLPVQNLN	0.447	0.645
PSLIASFWRVVG	0.12	0.672

Sequence	protein stability index [1]	protein stability index [2]
PLLAASFWRVVG	0.157	0.678
RLIQPLPVQFLT	0.223	0.59
PDKRLHLIKLLN	0.126	0.629
RLIQSLPVQFLN	0.0478	0.574
CTSCGYKPRTNN	0.693	0.683
KKHKKGQKQKINM	0.638	0.662
FSMRTTFRYWVN	0.0969	0.623
YDKRNHLIKLLN	0.138	0.581
CTSCGYKFRTNH	0.191	0.68
PDKRNHLIKMLN	0.0821	0.598
RLIQPMPVQFLN	0.0562	0.607
KKHKKGQTQKIN	0.0981	0.591
ADKRNHLIKLLN	0.129	0.587
RLIQRLPVQFLN	0.0385	0.646
FSMRWTFRYWVNE	0.532	0.542
ARWRVGLWRGWS	0.668	0.69
LVVYLSCVAEIN	0.0146	0.0269
PEKRNHLIKLLN	0.101	0.608
PDKLNHLIKLLN	0.133	0.609
FSMRWTFRYWVV	0.0991	0.526
LKRLRQKMNHQN	0.202	0.666
KRHKKGQKQKIN	0.0723	0.634
ARMRVGLWRGAS	0.645	0.702
RLIQPLFVQFLN	0.0762	0.621

Sequence	protein stability index [1]	protein stability index [2]
KKHFKGQKQKIN	0.0456	0.594
PSLAAMFWRVVG	0.137	0.691
LKIPRQKMNHQN	0.484	0.679
PDKRNHLIKLLNA	0.13	0.665
LKILRQKMNHAN	0.196	0.657
LKILRQKMNHQV	0.189	0.671
KKHKKGQKQKINK	0.647	0.659
KKIKKGQKQKIN	0.06	0.58
KKWKKGQKQKIN	0.0754	0.561
CTSCGYKFRTFN	0.335	0.712
RLIQPTPVQFLN	0.192	0.563
CTSIGYKFRTNN	0.153	0.695
LKILRQKMNHQW	0.255	0.679
RLIQPLPVQFLNS	0.385	0.658
PDKRNHLIHLLN	0.0992	0.586
RLGQPLPVQFLN	0.0875	0.611
CTSPGYKFRTNN	0.254	0.686
VRGAVGGWRLVGA	0.524	0.692
KEHKKGQKQKIN	0.127	0.634
KKHKFGQKQKIN	0.0916	0.578
VRFAVGGWRLVG	0.0977	0.678
VRHAVGGWRLVG	0.116	0.671
PKILRQKMNHQN	0.194	0.678
RLIQPLPVQFLE	0.633	0.743

Sequence	protein stability index [1]	protein stability index [2]
PDKRNHLIKLLNY	0.16	0.657
FRWRVGLWRGAS	0.0957	0.668
PSLAASFWRVKG	0.549	0.664
CTSSGYKFRTNN	0.413	0.634
CTYCGYKFRTNN	0.269	0.705
VCGAVGGWRLVG	0.118	0.686
KKHKKGEKQKIN	0.082	0.658
RLISPLPVQFLN	0.0608	0.622
PDKRNHLIKLLNE	0.564	0.662
ARWDVGLWRGAS	0.543	0.729
PSLAASFWRVVT	0.147	0.693
RLIQPLPVQFLNT	0.614	0.639
PSLAASFWRVVM	0.282	0.743
PSLQASFWRVVG	0.111	0.633
PSKRNHLIKLLN	0.145	0.61
FSMRWTFLYWVN	0.0672	0.383
FSMRATFRYWVN	0.0843	0.545
KAHKKGQKQKIN	0.111	0.858
KKHKKGQKQKIG	0.226	0.591
LVVYLSVVACIN	0.0255	0.0878
VRGAVGGWGLVG	0.28	0.616
